From paper PMC9616921

B1: VEGF-C: N175,205W (protein)
parent chain: MHLLGFFSVACSLLAAALLPGPREAPAAAAAFESGLDLSDAEPDAGEATAYASKDLEEQLRSVSSVDELMTVLYPEYWKMYKCQLRKGGWQHNREQANLNSRTEETIKFAAAHYNTEILKSIDNEWRKTQCMPREVCIDVGKEFGVATNTFFKPPCVSVYRCGGCCNSEGLQCMNTSTSYLSKTLFEITVPLSQGPKPVTISFANHTSCRCMSKLDVYRQVHSIIRRSLPATLPQCQAANKTCPTNYMWNNHICRCLAQEDFMFSSDAGDDSTDGFHDICGPNKELDEETCQCVCRAGLRPASCGPHKELDRNSCQCVCKNKLFPSQCGANREFDENTCQCVCKRTCPRNQPLNPGKCACECTESPQKCLLKGKKFHHQTCSCYRRPCTNRQKACEPGFSYSEEVCRCVPSYWKRPQMS
B2: VEGF-C: N175,205Q (protein)
parent chain: B1 parent chain

Key:
[1] = molecular target: minimal mature VEGF-C refolded from E. coli inclusion bodies (human); assay: SEC; refolded, dialysed and concentrated material on Superdex 75 10/300 GL in PBS, 0.5-0.6 mL/min; calibrated with BSA, carbonic anhydrase and RNaseA; dimeric fractions 11.5-13.5 mL, monomeric fractions 13.5-15.5 mL
[2] = IP of 35S-labelled 293T supernatants and lysates, SDS-PAGE; details: glycan lost; control: wild type

Row | Molecule | stoichiometry N [1] | expression_or_secretion [2]
1 | minimal mature VEGF-C refolded from E. coli inclusion bodies (domain or fragment) | 2 | –
2 | B1 | – | abolishes
3 | B2 | – | abolishes
